# Earlier results as cited in paper PMC3694163.
# What was measured:
# IR (Homo sapiens) = IR (Homo sapiens) (UniProt P06213)
# IGFBP6 (Homo sapiens) = IGFBP6 (Homo sapiens) (UniProt P24592)
# Chain of IGFBP6 (Homo sapiens) (P24592 28-240): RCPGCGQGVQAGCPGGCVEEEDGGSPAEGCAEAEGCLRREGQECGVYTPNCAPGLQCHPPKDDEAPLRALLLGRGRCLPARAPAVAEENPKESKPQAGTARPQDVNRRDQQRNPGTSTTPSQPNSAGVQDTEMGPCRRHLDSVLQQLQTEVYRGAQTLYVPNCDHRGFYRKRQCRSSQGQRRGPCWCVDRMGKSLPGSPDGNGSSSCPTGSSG
# Chain of insulin (P01308 90-110): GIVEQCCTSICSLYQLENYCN
Kd (IR (Homo sapiens)),Kd (IGFBP6 (Homo sapiens)),Substance
0.1 nM,–,insulin (from UniProt P01308)
–,5.7 nM,IGF-II (from UniProt P01344)
